Consider one molecule from article PMC12007569, “Molecular basis of pyruvate transport and inhibition of the human mitochondrial pyruvate carrier” (Science Advances, 2025).

The target of this assay is T1, human MPC1L/MPC2 heterodimer (Homo sapiens, UniProt P0DKB6;O95563).
T1 construct: MPC1L, human, wild-type cDNA, UniProt P0DKB6; MPC2, human, wild-type cDNA, UniProt O95563; Heterodimer formed beforehand (co-expressed and co-purified) and then mixed with the nanobody or the Pro-macrobody; also called hMPC1L/MPC2; hMPC1L/2 heterodimer; source: S. cerevisiae W303-1B, purified from mitochondria (LMNG, Nickel Sepharose, on-column TEV digestion); not shown: His tag, C-terminal, …
T1 sequence (P0DKB6 whole entry, chain 1 of 2): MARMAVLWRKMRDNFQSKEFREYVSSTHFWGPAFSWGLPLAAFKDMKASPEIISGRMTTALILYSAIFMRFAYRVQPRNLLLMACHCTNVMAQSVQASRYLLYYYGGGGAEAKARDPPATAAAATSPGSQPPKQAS
T1 sequence (O95563 whole entry, chain 2 of 2): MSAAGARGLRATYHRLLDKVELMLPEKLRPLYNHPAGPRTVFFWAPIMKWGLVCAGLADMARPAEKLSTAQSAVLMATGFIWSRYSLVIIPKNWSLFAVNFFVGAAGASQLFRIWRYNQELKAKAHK
In words: pull-down; 75 μg hMPC1L/MPC2 incubated at a stoichiometric ratio with each nanobody for 1 hour at 4°C, then Ni-NTA Superflow resin 1 hour at 4°C; washed with buffer B, eluted with 250 mM imidazole; fractions on SDS-PAGE. Conditions: both partners purified.

B1: nanobody CA19425 (VHH)
VHH: QVQLVESGGGLVQAGGSLRLSCAASGRTFSAYGISTYTMGWFRQAPGKEREFVAAIGRDSGFTYYEDSVKGRFTINADNAENTVYLQMNSLKPEDTAVYYCAASSYYGRPNVDLMAYWGKGTQVTVPP
notes: as the nanobody part of m4, held in the PMb chain of the deposited entries (modelled residues 4 to 131); One of six nanobodies (four families); also called MPC2-specific nanobody; source: from a phage display library (pMESy4) of a llama immunised with hMPC1L/MPC2 proteoliposomes
On to B1, for which the binding result was “binds”.
